Source: patent US20230257435A1, “Wound Healing Composition and Uses Thereof” (AGENCY FOR SCIENCE, TECHNOLOGY AND RESEARCH, priority 2020, published 2023)

Legend:
mouse keratinocytes = assay: Cell stiffness by atomic force microscopy (AFM); format: cell-based
Method: The stiffness of the mouse keratinocyte cells was measured using a Nanowizard IV BioAFM system (JPK Instruments, Germany). Confluent mouse kerantinocyte monolayers were cultured on a petri dish in PBS media. The monolayers were scratched across the center of the petri dish using a 100 μl pipette tip and characterised after 4 hrs. Indentations were performed on randomly selected cells at the wound edge with a polystyrene bead of diameter (˜4.5 μm) attached to the end of a cantilever (k=0.03 N/m, Novascan Technologies, Inc., Ames, Iowa) using a force of 3 nN at 1 Hz. More than 60 cells from triplicate experiments were characterized and averaged to evaluate the Young's modulus for each condition. Young's modulus values were calculated using JPK Data Processing Software (JPK Instruments, Germany), which employs Hertz's contact model for spherical indenters (diameter 4.5 μm; Poisson's ratio 0.5) fitted to the extend curves.

HEK cells = assay: Crossbow fibronectin micropatterns (geometric constraint); format: cell-based, human
Method: Tissue culture plates were coated with Col-T-gel (Fischer Scientific) of stiffness ranging from 0.8 KPa (soft) to 30 KPa (stiff) as per manufacturer recommendations and allowed to solidify for 40 min at 37° C. inside tissue culture incubators. Some experiments were performed with cells seeded on the poly-hydrogel plates of defined stiffness: 0.2 kPa and 16 kPa soft and hard polyhydrogels, respectively (CytoSoft, Advanced Biomatrix, Inc.,). The determination of stiffness of silicone substrates were done by the manufacturer as per previously published protocols. For certain experiments, indicated amounts of sAgrin was incorporated into the 0.8 KPa collagen gels before gelation process. Upon gelation, trypsinized cells or excised mouse skin explants were plated onto the gels of different stiffness either alone or containing sAgrin. The cells/tissues were incubated under standard culture condition with 500 μl recommended culture medium for the indicated days. The crossbow shaped micropatterns with fibronectin coated islands were generated by microlithography on a 19.5×19.5 mm coverslide from Cytoo, Inc., France. The micropatterns had surface areas of 800μ^2 or 1600μ^2, respectively. Fifty thousand cells after initial siRNA treatment was placed on the micropatterns for 4-6 h before processing them for immunofluorescence. […]

mouse skin wounds = assay: Cytokine and chemokine expression in mouse skin wounds; format: in vivo
Method: The photographs of a representative wound for each condition is shown above. The respective p values for the selected group of significant genes are represent in tabular form (n=3 mice per group, Multiple t tests). (b) Western blot analysis in the mouse skin treated as in (a) showing the protein expression of selected proteins. GAPDH served as a loading control (n=2 independent mice wounds were analyzed for each group).
Indicated cells post-manipulation were washed twice with cold Phosphate buffered saline (PBS) and lysed with cold 1% NP-40 lysis buffer supplemented with 1× protease inhibitor cocktail (Roche Applied Biosciences) for 15 mins at 4° C. […] The density of the various bands was quantified using the Image-J software.
Total RNA was extracted from indicated cells using Qiagen RNeasy mini kit as per the manufacturer's recommended protocol. […] For RNA-sequencing, the RNA quality was analyzed on a Bioanalyzer instrument (Agilent) using the Agilent RNA 6000 Pico Kit. […] Purified libraries were quantified by qPCR (KAPA Library Quantification Kit for Illumina, Roche). […] The condition of sequencing was represented by a single read high output run at 75 bp read length. Raw reads from fastq files were aligned to the hg38 genome using STAR 2.6.1d. […] The relative number of reads mapping to each gene was quantified with htseqcount on features from the gtf file gencode.v29.annotation.gtf. […]

B1: sAgrin: C-terminus recombinant Agrin fragment containing 8 amino acid 'Z8' insert and LG3 domain (SEQ ID NO: 7), His-tagged, expressed in E. coli (protein)
chain: DTLAFDGRTFVEYLNAVTESELANEIPVEKALQSNHFELSLRTEATQGLVLWSGKATERADYVALAIVDGHLQLSYNLGSQPVVLRSTVPVNTNRWLRVVAHREQREGSLQVGNEAPVTGSSPLGATQLDTDGALWLGGLPELPVGPALPKAYGTGFVGCLRDVVVGRHPLHLLEDAVTKPELRPCPTP
modifications: His tag
- stiffness of migrating MMP12 knockdown keratinocytes (mouse keratinocytes; 4 h post-injury, sAgrin treatment): not restored by sAgrin treatment
- stiffness of migrating keratinocytes (mouse keratinocytes; Agrin knockdown rescued with 10 μg/ml sAgrin, 4 h post-wound scratch, control ~2.1, knockdown ~0.9 KPa): ~1.5 KPa
- F-actin stress fibers and pMLC in small crossbow patterns (HEK cells; 800μ^2 patterns, 20 μg/ml sAgrin): partially rescued F-actin stress fibers and higher pMLC recruitment to the transverse arc
- stress fiber formation in large crossbow patterns (HEK cells; 1600μ^2 patterns): further accentuated
- tension curvatures at transverse arcs (HEK cells; large crossbow patterns): significantly higher tension curvatures
- F-actin stress fibers and pMLC in MMP12 knockdown cells (HEK cells; large crossbow patterns, sAgrin nourishment): did not exhibit F-actin stress fibers and pMLC enrichment in the transverse arcs
- tension signature in Agrin depleted cells (HEK cells; sAgrin in FN crossbow matrix, large patterns): restored the tension signature of F-actin stress fiber network and pMLC enriched transverse arcs
- protein expression of TGF-β1, VEGF-A and MCP-1 (mouse skin wounds; vs BSA and Collagen): augmented protein expression(s) of TGF-β1, VEGF-A and MCP-1
- mRNA of TGF-β1, VEGF-A, MCP-1, MIP-1β and MIP-2 (mouse skin wounds; within 48 h post-injury, vs BSA or Collagen): significantly induced
